In patent EP4389150A1, “CONJUGATE COMPOUNDS AND THEIR USE IN CANCER TREATMENT AND DIAGNOSIS” (Technische Universität München, priority 2022, dated 2024):
Read-outs that look alike come from different tables or passages of the source. Where a SMILES comes first, the peptide text is derived from it. [ ]: non-standard residue; d: D form. The star is where a group is joined. X1 = CN(Cc1ccc(-c2[nH]c3cc(F)cc4c3c2CCNC4=O)cc1)C(=O)CCS*; EuK = O=C(O)CC[C@H](NC(=O)N[C@@H](CCCCN*)C(=O)O)C(=O)O; Ahx = NCCCCCC(=O)O; Mpa = O=C(O)CCS

Assays:
[1] = Lipophilicity, n-octanol/PBS distribution coefficient; format: physicochemical
Method: Lipophilicity of the conjugates was determine after radiolabeling with ^68Ga. The PSMA ligand (0.80 MBq) was dissolved in PBS (500 µL/pH 7.4) in a reaction vial (1.5 mL; n = 10). Afterwards, n-octanol was added (500 µL) and the mixture was rigorously vortexed for 3 min. Subsequent centrifugation (Biofuge 15, Heraus Sepatech, Osterode, Germany) at 13,000 rpm for 5 min led to a phase separation. After measuring 100 µL of each phase in a γ-counter, the distribution coefficient (logD(O/PBS)) was calculated with Microsoft Excel.

Serum stability = format: in vitro ADME; settings: 37 °C
Method: For serum stability analysis, 13.5 µL human serum were mixed with 1.5 µL of an aqueous solution of the test compound (200 µM final concentration) and incubated at 37 °C for 0.5, 1, 2, and 24 h, respectively. Afterwards, 25.0 µL MeCN were added, the suspension was centrifuged (14,000 rpm, 30 min, 4 °C), the supernatant was recovered, and finally analyzed by HPLC-ESI-MS using a linear elution gradient from 10 to 95% (v/v) MeCN/0.1% (v/v) TFA in water/0.1% (v/v) TFA for 15 min.

[2] = test system: PC3-PIP/PC3-flu bilateral tumor model; format: in vivo, Athymic nude mice; settings: for biodistribution profile: 1 h post-injection; for tumor uptake (PET/CT, biodistribution): PSMA+ PC3-PIP versus PSMA- PC3-Flu tumors
LNCaP cells = experiment: Binding and internalization (cell uptake) of 68Ga-labelled PSMA ligands in LNCaP cells; format: cell-based
Method: To determine ligand internalization, LNCaP cells were seeded in a 96 V-bottom well plate at a density of 100,000 cells/well in 5% BSA (w/v)/RPMI medium (100 µL/well) and incubated for 30 min at 37 °C. Afterwards, solutions (25 µL/well) of either 5% BSA (w/v)/RPMI medium or of 2-PMPA (final concentration: 10 µM) in 5% BSA (w/v)/RPMI medium for blockade were added. Then, a solution of the ^68Ga-labeled PSMA-ligand (25 µL/well; 0.4 nM final concentration; AM = 26-30 MBq/nmol) was added to all wells, and the cells were incubated for 5, 15, 30, and 60 min, respectively, at 37 °C. Hereby, each time point was performed in triplicates and each experiment was repeated three times. The internalization process was terminated by placing the plate for 5 min on ice. The free radioligand was obtained by centrifugation of the plate at 600 g for 3 min and removal of the supernatant. Each well was then washed with ice-cold PBS and the fractions of the first two steps were combined. For removal of cell-bound PSMA-ligand, the cells were treated in a next step with ice-cold 2-PMPA-solution (10 µM in PBS; 150 µL/well; 15 min on ice), centrifuged (600 g, 3 min), and washed with ice-cold PBS (150 µL/well). The fractions were again combined. For the analysis of internalized radioligand, the fractions of a 1.0 N NaOH (150 µL/well; 10 min on ice) treatment as well as a concomitant washing step with 1.0 N NaOH (150 µL/well) were pooled. Free, surface bound, and internalized activity, respectively, was measured in a γ-counter.

PSMA = target: T1, PSMA (Homo sapiens, UniProt Q04609); experiment: IC50 determination by competition with [68Ga]-PSMA-617 on LNCaP cells; format: binding; settings: [68Ga]-PSMA-617 0.4 nM, 60 min on ice, natGa-labelled ligands
T1 construct: endogenous in cells; host or cells: LNCaP cells
T1 sequence (Q04609 whole entry): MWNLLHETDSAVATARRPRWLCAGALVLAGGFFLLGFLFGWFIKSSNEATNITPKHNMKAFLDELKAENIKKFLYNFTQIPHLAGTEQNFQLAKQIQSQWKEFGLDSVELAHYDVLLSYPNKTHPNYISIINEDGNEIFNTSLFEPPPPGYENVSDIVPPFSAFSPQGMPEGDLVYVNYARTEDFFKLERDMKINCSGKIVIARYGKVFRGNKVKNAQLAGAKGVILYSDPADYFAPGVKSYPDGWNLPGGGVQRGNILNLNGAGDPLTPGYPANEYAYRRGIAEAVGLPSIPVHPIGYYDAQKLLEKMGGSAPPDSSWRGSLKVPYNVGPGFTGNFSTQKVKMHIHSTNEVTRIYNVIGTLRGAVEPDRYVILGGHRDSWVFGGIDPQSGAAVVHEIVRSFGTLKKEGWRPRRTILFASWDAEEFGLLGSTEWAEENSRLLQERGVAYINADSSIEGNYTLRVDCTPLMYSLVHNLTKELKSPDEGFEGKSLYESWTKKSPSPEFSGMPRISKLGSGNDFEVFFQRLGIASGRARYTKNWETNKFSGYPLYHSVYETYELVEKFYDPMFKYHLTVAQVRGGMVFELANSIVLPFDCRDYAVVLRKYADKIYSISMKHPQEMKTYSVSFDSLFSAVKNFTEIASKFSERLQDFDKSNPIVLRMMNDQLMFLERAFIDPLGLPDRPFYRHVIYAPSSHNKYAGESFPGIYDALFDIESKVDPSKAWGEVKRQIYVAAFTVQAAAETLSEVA
Method: In the meantime, dilution series of the compounds were prepared in 1% BSA (w/v)/HBSS in a separate 96 U-bottom deep well plate ranging from 12 µM to 153.6 pM in 1:5 dilution steps. Next, solutions (25 µL/well) of either 1% BSA (w/v)/HBSS (control) or of the respective dilution series were transferred to the LNCaP cells containing plate. Hereby, each concentration was pipetted in triplicates and each experiment was repeated three times. Subsequently, [^68Ga]-PSMA-617 (25 µL/well; 0.4 nM final concentration; AM = 26-30 MBq/nmol) in 1% BSA (w/v)/HBSS was added to all wells and the plate was incubated for 60 min on ice. Afterwards, the experiment was terminated by centrifugation at 600 g for 3 min and removal of the supernatant. The cells were then washed with ice-cold HBSS (150 µL/well), centrifuged (600 g, 3 min), and the supernatant as well as the washing fraction were combined, representing the amount of free, unbound radioligand. Bound radioligand was obtained by lysis of the cells with 1.0 N NaOH (150 µL/well; 10 min on ice). Afterwards, the plate was washed a second time with 1.0 N NaOH (150 µL/well). Hereby, the washing step was combined with the NaOH fraction. The quantification of bound and free radioligand was finally accomplished via measuring the samples in a γ-counter.

[3] = target: prostate-specific membrane antigen (PSMA) (UniProt Q04609); experiment: cell uptake of 68Ga-labelled ligand (0.4 nM) on LNCaP cells, gamma counting
prostate-specific membrane antigen (PSMA), sequence (Q04609 whole entry): as above

[4] = target: prostate-specific membrane antigen (PSMA) (UniProt Q04609); experiment: competition with [68Ga]-PSMA-617 (0.4 nM) on LNCaP cells, 60 min on ice
[5] = 68Ga-labelled, 2 nmol via tail vein, 60 min p.i.

IC50 (PSMA)	% bound of total applied dose [3]	IC50 [4]	Compound	also measured
			CN(Cc1ccc(-c2[nH]c3cc(F)cc4c3c2CCNC4=O)cc1)C(=O)CCSSCCC(=O)NCCCCN1CCN(CC(=O)O)CCN(C(CCC(=O)N[C@H](CC(=O)O)C(=O)N[C@H](CC(=O)O)C(=O)NCCC(=O)NC[C@H]2CC[C@H](C(=O)N[C@@H](Cc3ccc4ccccc4c3)C(=O)NCCCC[C@@H](NC(=O)CC[C@H](NC(=O)N[C@@H](CCC(=O)O)C(=O)O)C(=O)O)C(=O)O)CC2)C(=O)O)CCN(CC(=O)O)CC1 (single isomer, unassigned) [Conjugate 18]	PiP/muscle ratios [2, 5]: > 25; PiP:Flu ratios [2, 5]: > 8; tumor uptake (PET/CT, biodistribution) ([2]; 60 min p.i.): selective uptake in PC3-PiP tumors and low uptake in PC3-Flu tumors and other organs
9.52 ± 2.41 nM			CN(Cc1ccc(-c2[nH]c3cc(F)cc4c3c2CCNC4=O)cc1)C(=O)CCSSCCC(=O)NC[C@H]1CC[C@H](C(=O)N[C@@H](Cc2ccc3ccccc3c2)C(=O)NCCCC[C@H](NC(=O)N[C@@H](CCC(=O)O)C(=O)O)C(=O)O)CC1 [Conjugate 7]	logD (n-oct/PBS) ([1]; pH 7.4): -2.98 ± 0.21
1.58 ± 0.94 nM			CN(Cc1ccc(-c2[nH]c3cc(F)cc4c3c2CCNC4=O)cc1)C(=O)CCSSCCC(=O)N[C@H](CC(=O)O)C(=O)N[C@H](Cc1ccc(O)cc1)C(=O)N[C@H](Cc1ccccc1)C(=O)N[C@H](Cc1ccccc1)C(=O)NCCCCCC(=O)NCCCC[C@H](NC(=O)N[C@@H](CCC(=O)O)C(=O)O)C(=O)O [Conjugate 8] ([Mpa](X1)[dD][dY][dF][dF][Ahx]-EuK)	logD (n-oct/PBS) ([1]; pH 7.4): -2.83 ± 0.07
2.19 ± 0.37 nM			CN(Cc1ccc(-c2[nH]c3cc(F)cc4c3c2CCNC4=O)cc1)C(=O)CCSSCCC(=O)NCCCCN1CCN(CC(=O)O)CCN(C(CCC(=O)N[C@H](CC(=O)O)C(=O)N[C@H](CC(=O)O)C(=O)NCCC(=O)NC[C@H]2CC[C@H](C(=O)N[C@@H](Cc3ccc4ccccc4c3)C(=O)NCCCC[C@H](NC(=O)N[C@@H](CCC(=O)O)C(=O)O)C(=O)O)CC2)C(=O)O)CCN(CC(=O)O)CC1 (some centres unmarked) [Conjugate 14]	logD ([1]; pH 7.4): -3.42 ± 0.15; % bound of total applied dose (LNCaP cells): 6.46 ± 0.98%
4.28 ± 0.95 nM			CN(Cc1ccc(-c2[nH]c3cc(F)cc4c3c2CCNC4=O)cc1)C(=O)CCSSCCC(=O)NCCCCN1CCN(CC(=O)O)CCN(C(CCC(=O)N[C@H](CC(=O)O)C(=O)N[C@H](CC(=O)O)C(=O)N[C@H](Cc2ccc(O)cc2)C(=O)N[C@H](Cc2ccccc2)C(=O)N[C@H](Cc2ccccc2)C(=O)NCCCCCC(=O)NCCCCCC(=O)NCCCC[C@H](NC(=O)N[C@@H](CCC(=O)O)C(=O)O)C(=O)O)C(=O)O)CCN(CC(=O)O)CC1 (some centres unmarked) [Conjugate 15]	logD ([1]; pH 7.4): -3.4 ± 0.07; % bound of total applied dose (LNCaP cells): 6.50 ± 0.50%
1.75 ± 0.16 nM			O=C(O)CC[C@H](NC(=O)N[C@@H](CCCCNC(=O)[C@H](Cc1ccc2ccccc2c1)NC(=O)[C@H]1CC[C@H](CNC(=O)CN2CCN(CC(=O)O)CCN(CC(=O)O)CCN(CC(=O)O)CC2)CC1)C(=O)O)C(=O)O [PSMA-617]	logD ([1]; n-octanol/PBS pH 7.4, after radiolabeling with 68Ga, read-out: logD (n-oct/PBS)): -3.62 ± 0.49; % bound of total applied dose (LNCaP cells; 60 min incubation with 0.4 nM 68Ga-labelled conjugates): 10.23 ± 0.86%
	10.2%		PSMA-617	
	8%	3.03 nM	PSMARuc-9: DOTAGA-D-Lys(Ruc-SS)-D-Asp-β-Ala-TXA-L-Nal-KuE (peptide)	
	6.18%	1.34 nM	PSMARuc-10: DOTAGA-D-Lys(Ruc-SS)-D-Asp-D-Tyr-D-Phe-D-Phe-Ahx-KuE (peptide)	
	6.45%	5.34 nM	PSMARuc-11: DOTAGA-D-Lys(Ruc-SS)-D-Asp-D-Tyr-D-Phe-L-Nal-Ahx-KuE (peptide)	
	3.48%	2.12 nM	PSMARuc-12: DOTAGA-D-Lys(Ruc-SS)-D-Asp-D-Tyr-D-Phe-D-Phe-Ahx-Ahx-KuE (peptide)	
	10.8%	0.67 nM	PSMARuc-13: DOTAGA-D-Lys(Ruc-Sub)-D-Asp-β-Ala-TXA-L-Nal-KuE (peptide)	
	6.46%	2.19 nM	PSMARuc-14: Ruc-SS-MMC-D-Asp-D-Asp-β-Ala-TXA-L-Nal-KuE (peptide)	
	6.5%	4.28 nM	PSMARuc-15: Ruc-SS-MMC-D-Asp-D-Asp-D-Tyr-D-Phe-D-Phe-Ahx-Ahx-KuE (peptide)	
	5.32%	0.82 nM	PSMARuc-16: DOTAGA-D-Lys(Ruc-SS)-D-Asp-D-Asp-β-Ala-TXA-L-Nal-D-Lys-EuE (peptide)	
	5.84%	1.38 nM	PSMARuc-17: DOTAGA-D-Lys(Ruc-SS)-D-Asp-D-Asp-D-Tyr-D-Phe-D-Phe-Ahx-D-Lys-EuE (peptide)	
	6.54%	0.69 nM	PSMARuc-18: Ruc-SS-MMC-D-Asp-D-Asp-β-Ala-TXA-L-Nal-D-Lys-EuE (peptide)	
		1.58 nM	Ruc-SS-D-Asp-D-Tyr-D-Phe-D-Phe-Ahx-KuE (PSMARuc-8) (peptide)	
		9.52 nM	Ruc-SS-TXA-L-Nal-KuE (PSMARuc-7) (peptide)	

Compound	IC50 (PSMA)	% bound of total applied dose [3]	IC50 [4]	also measured
CN(Cc1ccc(-c2[nH]c3cc(F)cc4c3c2CCNC4=O)cc1)C(=O)CCSSCCC(=O)NCCCC[C@@H](NC(=O)CCC(C(=O)O)N1CCN(CC(=O)O)CCN(CC(=O)O)CCN(CC(=O)O)CC1)C(=O)N[C@H](CC(=O)O)C(=O)N[C@H](Cc1ccc(O)cc1)C(=O)N[C@H](Cc1ccccc1)C(=O)N[C@@H](Cc1ccc2ccccc2c1)C(=O)NCCCCCC(=O)NCCCC[C@H](NC(=O)N[C@@H](CCC(=O)O)C(=O)O)C(=O)O (single isomer, unassigned) [Conjugate 11]	5.34 ± 1.45 nM			logD ([1]; pH 7.4): -3.11 ± 0.08; stable (intact) after incubation in human serum (Serum stability; 2 hours): 93%; intact after incubation in human serum (Serum stability; 24 hours): 74%; biodistribution profile ([2]; 68Ga-labelled): uptake limited to PSMA-expressing tumors and kidneys; tumor uptake (PET/CT, biodistribution) ([2]; 60 min p.i.): uptake in PSMA+ PC3-PIP tumors and no accumulation in PSMA- PC3-Flu tumors; % bound of total applied dose (LNCaP cells): 6.45 ± 1.16%
CN(Cc1ccc(-c2[nH]c3cc(F)cc4c3c2CCNC4=O)cc1)C(=O)CCSSCCC(=O)NCCCC[C@@H](NC(=O)CCC(C(=O)O)N1CCN(CC(=O)O)CCN(CC(=O)O)CCN(CC(=O)O)CC1)C(=O)N[C@H](CC(=O)O)C(=O)NCCC(=O)NC[C@H]1CC[C@H](C(=O)N[C@@H](Cc2ccc3ccccc3c2)C(=O)NCCCC[C@H](NC(=O)N[C@@H](CCC(=O)O)C(=O)O)C(=O)O)CC1 (some centres unmarked) [Conjugate 9]	3.03 ± 0.2 nM			logD ([1]; pH 7.4): -2.1 ± 0.24; biodistribution profile ([2]; 68Ga-labelled): uptake is limited to PSMA+ tumors and kidneys; % bound of total applied dose (LNCaP cells): 8.00 ± 1.27%
